Data as given in the supplement of paper PMC7877785.
± gives the uncertainty stated by the source.

Assay: self-splicing fitness, log relative to wild type (ln ratio); higher = more splicing; Tetrahymena group I intron in knt gene, E. coli kanamycin selection, DiMSum; sequences stand for … in CUCUCU…GGAGGGAAAAGUUAUCAGGCAUGCACCUGGUAGCUAGUCUUUAAACCAAUAGAUUGCAUCGGUUUAAAAGGCAAGACCGUCAAAUUGCGGGAAAGGGGUCAACAGCCGUUCAGUACCAAGUCUCAGGGGAAACUUUGAGAUGGCCUUGCAAAGGGUAUGGUAAUAAGCUGACGGACAUGGUCCUAACCACGCAGCCAAGUCCUAAGUCAACAGAUCUUCUGUUGAUAUGGAUGCAGUUCACAGACUAAAUGUCGGUCGGGGAAGAUGUAUUCUUCUCAUAAGAUAUAGUCGGACCUCUCCUUAAUGGGAGCUAGCGGAUGAAGUGAUGCAACACUGGAGCCGCUGGGAACUAAUUUGUAUGCGAAAGUAUAUUGAUUAGUUUUGGAGUACUCGUGGUCG
In short: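 DiMSum derived fitness as the error-weighted combination of fold changes across replicates, kanamycin versus no kanamycin, normalised to wild type. E. coli BL21(DE3) held the library, which randomised all eight P1ex-region intron nucleotides within the knt kanamycin-resistance gene on pET-22b(+). Six replicate transformations grew overnight at 37°C or 30°C on LB agar with or without 25 μg/mL kanamycin, also containing 100 μg/mL carbenicillin, 50 μM IPTG and 0.2% rhamnose, and pooled colonies were amplicon-sequenced on an Illumina HiSeq 2500.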

| Sequence | self-splicing fitness (ln) (30 °C) | self-splicing fitness (ln) (37 °C) |
| --- | --- | --- |
| UAUAAGCAAUAUUACGUCAC | -2.89 ± 0.33 | -1.38 ± 0.32 |
| UUAAAGCAAUAUUACGCACC | -0.965 ± 0.33 | -0.676 ± 0.44 |
| AUUCAGCAAUAUUACGAAGC | -3.62 ± 0.27 | -1.32 ± 0.17 |
| AGCGAGCAAUAUUACGGGGG | -2.6 ± 0.33 | -2.04 ± 0.41 |
| AACAAGCAAUAUUACGCGUC | -3.84 ± 0.2 | -2.66 ± 0.15 |
| GAGAAGCAAUAUUACGGUUA | -1.13 ± 0.12 | -0.315 ± 0.13 |
| UGAAAGCAAUAUUACGUUUU | -3.67 ± 0.18 | -3.41 ± 0.35 |
| UCCAAGCAAUAUUACGGAAG | -1.85 ± 0.2 | -1.8 ± 0.24 |
| GUUCAGCAAUAUUACGUCCU | -0.606 ± 0.14 | 0.279 ± 0.17 |
| UCGCAGCAAUAUUACGCGCU | -1.23 ± 0.12 | -1.19 ± 0.21 |
| GCGAAGCAAUAUUACGGGAU | -3.58 ± 0.3 | -2.07 ± 0.26 |
| CUCAAGCAAUAUUACGCGUU | -4.07 ± 0.46 | -2.92 ± 0.3 |
| GGGAAGCAAUAUUACGAAUG |  | -0.92 ± 0.34 |
| UCAUAGCAAUAUUACGGUGA | -2.39 ± 0.13 | -2 ± 0.12 |
| CAACAGCAAUAUUACGCCGA | -2.35 ± 0.18 | -1.76 ± 0.17 |
| GCUCAGCAAUAUUACGGAAU | -0.424 ± 0.083 | 0.224 ± 0.12 |
| AAAGAGCAAUAUUACGUGGU | -4.52 ± 0.27 | -3.08 ± 0.18 |
| AUCAAGCAAUAUUACGUAAG | -2.05 ± 0.097 | -1.45 ± 0.13 |
| GUCAAGCAAUAUUACGCGCC | -4.2 ± 0.3 | -1.95 ± 0.23 |
| UUAGAGCAAUAUUACGCCCG | -1.21 ± 0.11 | -0.643 ± 0.19 |
| CCCUAGCAAUAUUACGAGCG | -2.86 ± 0.21 | -1.13 ± 0.19 |
| AAUCAGCAAUAUUACGGGUC | -2.03 ± 0.086 | -1.76 ± 0.11 |
| CUCCAGCAAUAUUACGUCGG | -3.14 ± 0.15 | -2.36 ± 0.15 |
| UUACAGCAAUAUUACGAGUC | -4.54 ± 0.3 | -2.84 ± 0.26 |
| ACGCAGCAAUAUUACGGCUG | -3.03 ± 0.16 | -3.01 ± 0.22 |
| UGCAAGCAAUAUUACGUUUC | -4.31 ± 0.26 | -3.24 ± 0.17 |

| Sequence | self-splicing fitness (ln) (30 °C) | self-splicing fitness (ln) (37 °C) |
| --- | --- | --- |
| UUUGAGCAAUAUUACGUGGA | -2.53 ± 0.21 | -2.37 ± 0.22 |
| AAGGAGCAAUAUUACGUUGU | -2.61 ± 0.15 | -2.53 ± 0.21 |
| AACGAGCAAUAUUACGUCCU | -1.04 ± 0.079 | -0.143 ± 0.095 |
| UAGAAGCAAUAUUACGAAGC |  | -2.2 ± 0.24 |
| UAUAAGCAAUAUUACGAUGA | -0.333 ± 0.1 | 0.344 ± 0.13 |
| CUGAAGCAAUAUUACGAGCG | 0.242 ± 0.072 | 0.0253 ± 0.1 |
| GCUGAGCAAUAUUACGAUAU | -2.62 ± 0.28 | -1.08 ± 0.2 |
| CCUAAGCAAUAUUACGAAAC | -3.48 ± 0.33 |  |
| CCGCAGCAAUAUUACGGAGU | -4.11 ± 0.21 | -3.01 ± 0.23 |
| UACUAGCAAUAUUACGACGA | -0.687 ± 0.058 | -0.172 ± 0.066 |
| GUUAAGCAAUAUUACGAGUC | -3.05 ± 0.12 | -1.86 ± 0.15 |
| GGCGAGCAAUAUUACGCUCA | -1.02 ± 0.11 | 0.00865 ± 0.12 |
| GUACAGCAAUAUUACGUGGC | -3.61 ± 0.17 | -1.75 ± 0.13 |
| GAGUAGCAAUAUUACGCCUG | -1.23 ± 0.13 | -0.972 ± 0.15 |
| AAGAAGCAAUAUUACGGUUC | -2.86 ± 0.14 | -0.743 ± 0.15 |
| GAUGAGCAAUAUUACGGUUC | -4.06 ± 0.33 | -2.32 ± 0.35 |
| CAUCAGCAAUAUUACGUUAG | -0.472 ± 0.073 | -0.526 ± 0.08 |
| GCGCAGCAAUAUUACGUGGC | -1.81 ± 0.29 | -2.36 ± 0.29 |
| AUGAAGCAAUAUUACGCCUC | -0.0224 ± 0.2 | -1.19 ± 0.33 |
| GCGCAGCAAUAUUACGGUGG | -1.74 ± 0.059 | -0.842 ± 0.08 |
| UCGGAGCAAUAUUACGCUAU | -3.09 ± 0.34 | -2.48 ± 0.36 |
| AUGUAGCAAUAUUACGUGGC | -4.11 ± 0.46 | -2.84 ± 0.25 |
| UGCCAGCAAUAUUACGUGCC | -1.03 ± 0.095 | 0.0809 ± 0.15 |
| UGAAAGCAAUAUUACGCUUU | -4.77 ± 0.28 | -2.53 ± 0.26 |
| AUCGAGCAAUAUUACGACAG | -2.51 ± 0.12 | -3.22 ± 0.19 |
| UAUGAGCAAUAUUACGCGAG | -2.87 ± 0.17 | -0.834 ± 0.08 |

| Sequence | self-splicing fitness (ln) (30 °C) | self-splicing fitness (ln) (37 °C) |
| --- | --- | --- |
| GGUAAGCAAUAUUACGGCGC | 0.369 ± 0.14 | 0.841 ± 0.18 |
| CUUGAGCAAUAUUACGAGCA | -2.65 ± 0.41 | -3.07 ± 0.33 |
| CUUCAGCAAUAUUACGACCU | -2.42 ± 0.21 | -1.7 ± 0.27 |
| GUUGAGCAAUAUUACGCGUU | -4.25 ± 0.46 | -2.15 ± 0.28 |
| UGACAGCAAUAUUACGGGGA | -1.25 ± 0.087 | -1.61 ± 0.12 |
| AACUAGCAAUAUUACGCUUU | -2.44 ± 0.097 | -1.71 ± 0.12 |
| GAAUAGCAAUAUUACGCCAU |  | -1.49 ± 0.36 |
| ACCUAGCAAUAUUACGCAGA | -2.23 ± 0.09 | -1.11 ± 0.082 |
| UGACAGCAAUAUUACGAUAG | -1.49 ± 0.07 | -0.347 ± 0.076 |
| CUCAAGCAAUAUUACGCGCG | -3.19 ± 0.18 | -2.41 ± 0.29 |
| CCAGAGCAAUAUUACGAAUU | -4 ± 0.28 | -3.11 ± 0.43 |
| AUAAAGCAAUAUUACGUUUC | -3.83 ± 0.23 | -2.64 ± 0.33 |
| CGUAAGCAAUAUUACGGUGG | -1.48 ± 0.082 | -1.25 ± 0.11 |
| AGCCAGCAAUAUUACGAACU | -0.257 ± 0.11 | 0.407 ± 0.14 |
| UGUUAGCAAUAUUACGCAGU | -3.62 ± 0.27 | -2.48 ± 0.27 |
| AGCUAGCAAUAUUACGAGUA | -1.65 ± 0.15 | -0.618 ± 0.12 |
| CUCCAGCAAUAUUACGUAGG | -2.92 ± 0.11 | -1.9 ± 0.15 |
| GUCUAGCAAUAUUACGCAUU | 0.0861 ± 0.1 | 0.379 ± 0.092 |
| UAGGAGCAAUAUUACGAUAC | -4.56 ± 0.32 | -1.86 ± 0.28 |
| UGCUAGCAAUAUUACGCAAG | -3.87 ± 0.33 | -3.11 ± 0.25 |
| AUCAAGCAAUAUUACGACGG | -3.8 ± 0.14 | -2.67 ± 0.15 |
| UCAGAGCAAUAUUACGGUCG | -2.95 ± 0.16 | -1.32 ± 0.14 |
| CUAUAGCAAUAUUACGACAU | -4.157 ± 0.031 | -3.08 ± 0.045 |
| CCUCAGCAAUAUUACGUGCG | -2.51 ± 0.11 | -1.71 ± 0.12 |
